Data on twelve substances can be found in paper PMC7593969.

For assay [1], the target named is Nef(1 to 115)-(L112A)-GFP-Flag (HIV-1 (NL4-3)) (UniProt P03406). Nature of the assay: co-IP; HEK293T cotransfected 24 h with LMP7-Myc and GFP-Flag or Nef(1 to 115)-GFP-Flag constructs; anti-Flag IP; blot with anti-Myc.
Assay [2] addresses Nef(1 to 115)-(L112A/Y115A)-GFP-Flag (HIV-1 (NL4-3)) (UniProt P03406). The assay is described as above.
In assay [3] the target is Nef(1 to 115)-(Y115A)-GFP-Flag (HIV-1 (NL4-3)) (UniProt P03406). The description is as above.
Assay [4] deals with LMP7-Myc, P28062-2. Nature of the assay: co-IP (anti-Flag IP, anti-Myc IB), band intensity quantified. Conditions: 293T cells cotransfected for 24 h; parent: 100; read off a plot.
For assay [5], the target named is proLMP7-Flag (UniProt P28062). Nature of the assay: co-IP; HEK293T cotransfected 24 h with Nef-HA constructs and LMP7-Flag constructs; RIPA lysates; anti-Flag antibody and protein G-Sepharose at 4°C overnight; blot with anti-HA.
In assay [6] the target is LMP7-His (biotinylated) (UniProt P28062). Nature of the assay: BLI; biotinylated LMP7 on streptavidin biosensors; GST or Nef-GST in solution; PBS; 1:1 binding model.

Chain of LMP7-Myc, P28062-2 (P28062 other isoform, or with tags, fused parts or gaps): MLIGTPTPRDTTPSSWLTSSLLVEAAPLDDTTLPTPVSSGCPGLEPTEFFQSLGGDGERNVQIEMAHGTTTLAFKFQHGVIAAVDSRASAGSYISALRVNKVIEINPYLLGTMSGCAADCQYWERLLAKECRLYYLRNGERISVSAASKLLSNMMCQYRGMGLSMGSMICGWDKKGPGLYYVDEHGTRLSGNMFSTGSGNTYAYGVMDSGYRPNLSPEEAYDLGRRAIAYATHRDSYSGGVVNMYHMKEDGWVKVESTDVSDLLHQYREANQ

For “LMP7-Myc (from UniProt P28062-2 1-272) (natural protein)”, the figures for the relative co-IP band intensity (Nef(1 to 115) = 100%) in assay [1], in assay [2] and in assay [3] were 19%, 1.4% and 14%, respectively.

“Nef(1 to 115)-GFP-Flag (from UniProt P03406) 101-104A”: the percent of parent in assay [4] amounted to 53%. For “Nef(1 to 115)-GFP-Flag (from UniProt P03406) 105-108A”, the percent of parent in assay [4] is 120%. Take “Nef(1 to 115)-GFP-Flag (from UniProt P03406) D111A”: the percent of parent in assay [4] is 130%. Regarding “Nef(1 to 115)-GFP-Flag (from UniProt P03406) I109A”, the percent of parent in assay [4] was found to be 60%. As to “Nef(1 to 115)-GFP-Flag (from UniProt P03406) I109A; L110A; D111A; L112A”, in assay [4], the percent of parent was determined as 28%. As for “Nef(1 to 115)-GFP-Flag (from UniProt P03406) I114A”, the percent of parent in assay [4] turned out to be 47%. For the substance “Nef(1 to 115)-GFP-Flag (from UniProt P03406) L110A”, in assay [4], the percent of parent was determined as 60%. Same read-out and setting: the same measure for “Nef(1 to 115)-GFP-Flag (from UniProt P03406) W113A”: 97%. Take “Nef(1 to 115)-GFP-Flag (from UniProt P03406) W113A; I114A; Y115A”: the percent of parent in assay [4] came to 31%.

With “Nef(1 to 130)-HA (from UniProt P03406 1-130) (domain or fragment)”, in assay [5], the strength of the interaction (co-IP band) relative to Nef(1 to 115) is 40 % higher and the strength of the interaction (co-IP band) relative to Nef(1 to 149) was found to be 20 % stronger. For orientation: Kd means a measure of binding affinity in units of concentration. Regarding “Nef-GST (from UniProt P03406 1-206) (natural protein)”, in assay [6], the BLI wavelength shift was found to be 71.1 pm and the Kd stood at 735 nM.
